The assay deals with Xenopus cyclase-associated protein 1 (XCAP1) (X. laevis (endogenous in oocytes)). As to the kind of experiment: SEC-MALS + AUC; purified native XCAP1-actin complex; SEC-MALS on SRT SEC-300 in PBS pH 7.2, 0.02% NaN3, 20 °C; sedimentation velocity at 40,000 rpm, 20 °C.

Here are results for 1 substance from PMC8113726.

The stoichiometry N is the number of molecules, sites or subunits per partner or assembly. With “Xenopus cyclase-associated protein 1 (XCAP1) (natural protein)”, the stoichiometry N turned out to be 4.
